Article PMC3549669 (Science signaling, 2012)

What was measured:
SEC = target: the molecule itself; experiment: SEC
GST-TBK1 = target: T1, GST-TBK1 (human, UniProt Q9UHD2 1-729); experiment: pull-down
T1 sequence (looked up): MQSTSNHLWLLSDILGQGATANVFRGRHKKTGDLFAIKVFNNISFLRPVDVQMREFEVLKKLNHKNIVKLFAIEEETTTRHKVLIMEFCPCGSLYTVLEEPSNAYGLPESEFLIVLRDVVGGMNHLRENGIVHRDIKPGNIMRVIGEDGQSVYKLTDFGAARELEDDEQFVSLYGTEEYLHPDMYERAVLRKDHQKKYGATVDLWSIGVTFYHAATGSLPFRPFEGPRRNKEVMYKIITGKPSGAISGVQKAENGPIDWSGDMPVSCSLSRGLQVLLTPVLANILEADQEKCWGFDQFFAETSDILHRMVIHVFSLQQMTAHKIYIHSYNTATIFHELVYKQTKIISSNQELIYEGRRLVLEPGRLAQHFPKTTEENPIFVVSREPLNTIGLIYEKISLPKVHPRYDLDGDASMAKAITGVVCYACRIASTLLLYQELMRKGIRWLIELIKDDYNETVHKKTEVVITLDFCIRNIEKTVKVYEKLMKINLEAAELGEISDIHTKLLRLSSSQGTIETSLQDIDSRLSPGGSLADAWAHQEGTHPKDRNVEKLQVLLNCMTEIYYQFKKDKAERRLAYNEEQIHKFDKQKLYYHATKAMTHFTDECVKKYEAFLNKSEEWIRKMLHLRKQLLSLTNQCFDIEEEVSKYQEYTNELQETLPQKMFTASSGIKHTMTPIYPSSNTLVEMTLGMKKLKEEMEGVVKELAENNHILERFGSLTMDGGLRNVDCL

Flag-TBK1 = target: T2, Flag-TBK1 (human, UniProt Q9UHD2 1-729); experiment: pull-down
T2 sequence (looked up): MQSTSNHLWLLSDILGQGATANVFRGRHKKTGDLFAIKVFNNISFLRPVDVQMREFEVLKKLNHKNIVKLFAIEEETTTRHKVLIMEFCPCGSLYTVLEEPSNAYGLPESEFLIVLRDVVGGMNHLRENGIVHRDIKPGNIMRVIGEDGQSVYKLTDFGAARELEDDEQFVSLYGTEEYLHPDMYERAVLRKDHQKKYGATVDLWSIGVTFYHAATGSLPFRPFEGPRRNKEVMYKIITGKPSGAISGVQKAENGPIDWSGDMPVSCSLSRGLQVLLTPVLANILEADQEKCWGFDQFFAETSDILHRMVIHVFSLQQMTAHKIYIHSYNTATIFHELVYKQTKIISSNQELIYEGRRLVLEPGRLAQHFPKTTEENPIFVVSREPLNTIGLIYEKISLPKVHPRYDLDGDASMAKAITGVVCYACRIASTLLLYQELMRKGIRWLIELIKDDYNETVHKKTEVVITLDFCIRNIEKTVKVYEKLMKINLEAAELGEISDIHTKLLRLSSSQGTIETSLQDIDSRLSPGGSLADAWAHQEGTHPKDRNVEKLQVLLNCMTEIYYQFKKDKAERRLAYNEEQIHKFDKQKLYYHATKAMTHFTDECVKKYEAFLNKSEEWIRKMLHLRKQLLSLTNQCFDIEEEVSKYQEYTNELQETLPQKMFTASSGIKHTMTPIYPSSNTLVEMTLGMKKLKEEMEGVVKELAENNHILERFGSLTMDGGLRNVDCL

VTVGSLKTSAVPSTSTMSQEPELLISGMEKPLPLRTDFS (domain or fragment, human, UniProt Q86WV6 341-379, looked up) [His6-STING (341–379)]
binding result (SEC): binds
binding result (GST-TBK1): binds

VTVGSLKTSAVPSTSTMSQEPELLIAGMEKPLPLRTDFS (domain or fragment, human, UniProt Q86WV6 341-379, looked up) [His6-STING (341–379) S366A]
binding result (SEC): binds

VTVGSLKTSAVPSTSTMSQEPELLISGMEKPLPARTDFS (domain or fragment, human, UniProt Q86WV6 341-379, looked up) [His6-STING (341–379) L374A]
binding result (SEC): binds

VTVGSLKTSAVPSTSTMSQEPELLISGMEKPLPLRTDFS (domain or fragment, human, UniProt Q86WV6 341-379, looked up) [GST-STING (341–379)]
binding result (Flag-TBK1): binds

VTVGSLKTSAVPSTSTMAQEPELLISGMEKPLPLRTDFS (domain or fragment, human, UniProt Q86WV6 341-379, looked up) [GST-STING (341–379) S358A]
binding result (Flag-TBK1): binds

VTVGSLKTSAVPSTSTMSQEPELLIAGMEKPLPLRTDFS (domain or fragment, human, UniProt Q86WV6 341-379, looked up) [GST-STING (341–379) S366A]
binding result (Flag-TBK1): binds

VTVGSLKTSAVPSTSTMSQEPELLISGMEKPLPARTDFS (domain or fragment, human, UniProt Q86WV6 341-379, looked up) [GST-STING (341–379) L374A]
binding result (Flag-TBK1): binds
